Consider one molecule from publication PMC11325815 (Journal of Hematology & Oncology, 2024).

This assay has as its target recombinant extracellular domain (ECD) of human IL1RAP (S21-E359) (Homo sapiens, UniProt Q9NPH3). As to the kind of experiment: SPR. A general note: In SPR one partner is held on a chip, and binding of the other changes the refractive index at the surface.

Chain of recombinant extracellular domain (ECD) of human IL1RAP (S21-E359) (Q9NPH3 21-359): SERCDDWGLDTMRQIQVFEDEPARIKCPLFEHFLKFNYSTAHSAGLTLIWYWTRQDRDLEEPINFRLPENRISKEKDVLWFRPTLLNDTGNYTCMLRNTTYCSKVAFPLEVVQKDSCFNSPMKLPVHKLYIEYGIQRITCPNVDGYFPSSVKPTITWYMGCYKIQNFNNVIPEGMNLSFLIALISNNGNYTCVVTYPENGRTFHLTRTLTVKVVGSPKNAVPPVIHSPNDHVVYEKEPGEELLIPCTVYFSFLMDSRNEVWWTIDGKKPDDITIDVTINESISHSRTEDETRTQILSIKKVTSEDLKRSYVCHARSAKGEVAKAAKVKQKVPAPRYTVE

B1: anti-IL1RAP-24 Fab (Fab, V domains shown)
VH: QVQLQQSGPELVRPGVSVKISCKGSGYTFTDYAMHWVKQSHGKGLEWIGIISTYSGNTKFHQKFKGKATMTVDKSSSTAYMELARLTSEDSAIYYCARQGTWYFDVWGAGTTVTVSS
VL: QIVLTQSPAIMSASPGEKVTMTCSASSTIIYIHWYQQKPGTSPKGWIYDTSKLASGVPARFSGSGSGTSYSLTISSMEAEDAATYYCHQRTSYPWTFGGGTKLEIK
Take B1: the Kd (in general, the concentration at which binding is half-saturated) came out at 2.2 nM.
